Patent publication US20170298096A1 (CANIMGUIDE THERAPEUTICS, published 2017)
No end group written: not given here.

T1: His-tagged P3028 (human, also: His-tag, terminus and sequence not given here)
T1 construct: used in solution in the PEPSCAN (rampo) ELISA; also called PGE73; His-tag-P3028; not shown: His tag
T1 peptide: VFDEFKPLVEEPQNLIK

T2: His-tagged P3028 (human, not fully specified)
T2 construct: the tag is put first after 'PGE73=His-tag-P3028'; also called PGE73; not shown: His-tag
T2 peptide: {His‑tag}-VFDEFKPLVEEPQNLIK

B1: SEQ ID NO 3 (peptide)
peptide: RKLDTFFVKLSLFTER
B2: SEQ ID NO 11 (peptide)
peptide: KKLDTFVVKLSLFTER
B3: SEQ ID NO 4 (peptide)
peptide: KKGDTFFVKLSLFTER
B4: SEQ ID NO 7 (peptide)
peptide: KKLDTAFVKLSLFTER
B5: SEQ ID NO 6 (peptide)
peptide: KKLDQFFVKLSLFTER
B6: SEQ ID NO 5 (peptide)
peptide: KKEDTFFVKLSLFTER
B7: SEQ ID NO 8 (peptide)
peptide: KKLDTVFVKLSLFTER
B8: P28R S11D (peptide)
peptide: KKLDTFFVKLDLFTER
B9: P28R T14Y (peptide)
peptide: KKLDTFFVKLSLFYER
B10: P28R T14S (peptide)
peptide: KKLDTFFVKLSLFSER
B11: P28R T5W (peptide)
peptide: KKLDWFFVKLSLFTER
B12: P28R T14D (peptide)
peptide: KKLDTFFVKLSLFDER
B13: P28R S11W (peptide)
peptide: KKLDTFFVKLWLFTER
B14: P28R T5F (peptide)
peptide: KKLDFFFVKLSLFTER
B15: P28R S11V (peptide)
peptide: KKLDTFFVKLVLFTER
B16: P28R T5M (peptide)
peptide: KKLDMFFVKLSLFTER
B17: P28R V8F (peptide)
peptide: KKLDTFFFKLSLFTER
B18: P28R V8Y (peptide)
peptide: KKLDTFFYKLSLFTER
B19: P28R T5S (peptide)
peptide: KKLDSFFVKLSLFTER
B20: P28R T14H (peptide)
peptide: KKLDTFFVKLSLFHER
B21: P28R T5R (peptide)
peptide: KKLDRFFVKLSLFTER
B22: P28R T5K (peptide)
peptide: KKLDKFFVKLSLFTER
B23: P28R S11F (peptide)
peptide: KKLDTFFVKLFLFTER
B24: P28R T5E (peptide)
peptide: KKLDEFFVKLSLFTER
B25: P28R T5Y (peptide)
peptide: KKLDYFFVKLSLFTER
B26: P28R S11K (peptide)
peptide: KKLDTFFVKLKLFTER
B27: P28R T5Q (peptide)
peptide: KKLDQFFVKLSLFTER
B28: P28R T14M (peptide)
peptide: KKLDTFFVKLSLFMER
B29: P28R T14R (peptide)
peptide: KKLDTFFVKLSLFRER
B30: P28R S11T (peptide)
peptide: KKLDTFFVKLTLFTER
B31: P28R T14E (peptide)
peptide: KKLDTFFVKLSLFEER
B32: P28R V8S (peptide)
peptide: KKLDTFFSKLSLFTER
B33: P28R S11Y (peptide)
peptide: KKLDTFFVKLYLFTER
B34: P28R T5L (peptide)
peptide: KKLDLFFVKLSLFTER
B35: P28R V8I (peptide)
peptide: KKLDTFFIKLSLFTER
B36: P28R T14Q (peptide)
peptide: KKLDTFFVKLSLFQER
B37: P28R T14K (peptide)
peptide: KKLDTFFVKLSLFKER
B38: P28R T5A (peptide)
peptide: KKLDAFFVKLSLFTER
B39: P28R V8K (peptide)
peptide: KKLDTFFKKLSLFTER
notes: also called P27; SCF27
B40: P28R V8H (peptide)
peptide: KKLDTFFHKLSLFTER
B41: P28R S11M (peptide)
peptide: KKLDTFFVKLMLFTER
B42: P28R V8T (peptide)
peptide: KKLDTFFTKLSLFTER
B43: P28R T5D (peptide)
peptide: KKLDDFFVKLSLFTER
B44: P28R V8A (peptide)
peptide: KKLDTFFAKLSLFTER
B45: P28R T5V (peptide)
peptide: KKLDVFFVKLSLFTER
B46: P28R T14A (peptide)
peptide: KKLDTFFVKLSLFAER
B47: P28R V8D (peptide)
peptide: KKLDTFFDKLSLFTER
B48: P28R T14I (peptide)
peptide: KKLDTFFVKLSLFIER
B49: P28R V8M (peptide)
peptide: KKLDTFFMKLSLFTER
B50: P28R V8R (peptide)
peptide: KKLDTFFRKLSLFTER
B51: P28R T5H (peptide)
peptide: KKLDHFFVKLSLFTER
B52: P28R V8N (peptide)
peptide: KKLDTFFNKLSLFTER
B53: P28R V8E (peptide)
peptide: KKLDTFFEKLSLFTER
B54: P28R S11L (peptide)
peptide: KKLDTFFVKLLLFTER
B55: P28R V8W (peptide)
peptide: KKLDTFFWKLSLFTER
B56: P28R T5N (peptide)
peptide: KKLDNFFVKLSLFTER
B57: P28R T14F (peptide)
peptide: KKLDTFFVKLSLFFER
B58: P28R T14L (peptide)
peptide: KKLDTFFVKLSLFLER
B59: P28R V8L (peptide)
peptide: KKLDTFFLKLSLFTER
B60: P28R T5I (peptide)
peptide: KKLDIFFVKLSLFTER
B61: P28R S11Q (peptide)
peptide: KKLDTFFVKLQLFTER
B62: P28R V8Q (peptide)
peptide: KKLDTFFQKLSLFTER
B63: P28R S11R (peptide)
peptide: KKLDTFFVKLRLFTER
B64: P28R T14W (peptide)
peptide: KKLDTFFVKLSLFWER
B65: P28R S11H (peptide)
peptide: KKLDTFFVKLHLFTER
B66: P28R T14N (peptide)
peptide: KKLDTFFVKLSLFNER
B67: P28R T14V (peptide)
peptide: KKLDTFFVKLSLFVER
B68: P28R S11N (peptide)
peptide: KKLDTFFVKLNLFTER
B69: P28R S11E (peptide)
peptide: KKLDTFFVKLELFTER
B70: P28R S11I (peptide)
peptide: KKLDTFFVKLILFTER

Target: T1, His-tagged P3028
Experiment: PEPSCAN ELISA (rampo)
Experimental: After washing, the peroxidase substrate 2,2′-azine-di-3-ethylbenzthiazoline sulfonate (ABTS) and 2 μL of 3% H2O2 were added. The binding capacity of the mAb was measured as a color development at 405 nm (optical density, OD405). The color development was quantified with a charge-coupled device (CCD)—camera and an image processing system.
The OD405-values obtained by a CCD-camera was considered as raw data values (“rampo values,” “rampo units,” or “rampo scores”). […] First the CCD-camera made a picture of the card before peroxidase coloring and then again a picture after the peroxidase coloring. […] These values were copied into an excel file and labeled as a raw data file. One follow-up manipulation was allowed. Sometimes a well can contain an air-bubble resulting in a false-positive value. If manual inspection of the cards detect an air-bubble the value are set to 0 for that well.

B1 and B2 cannot be ordered by rampo value: over 500 rampo units for the first, over 500 rampo units for the second.

B3 and B4 cannot be ordered by rampo value: over 500 rampo units for the first, over 500 rampo units for the second.

B5 and B6 cannot be ordered by rampo value: over 500 rampo units for the first, over 500 rampo units for the second.

B7 was tested, and the rampo value was over 500 rampo units.

Target: T2, His-tagged P3028
Experiment: chip ELISA

Going from B8 to B9, the ELISA signal falls from 322 to 270.

Compared with B10, B11 is higher in ELISA signal: 369 for the first, 418 for the second.

Going from B12 to B13, the ELISA signal rises from 159 to 324.

First: B14
Second: B15
The ELISA signal of the first is lower: 290 for the first, 392 for the second.

Going from B16 to B17, the ELISA signal falls from 475 to 358.

First: B18
Second: B19
The ELISA signal of the first is lower: 211 for the first, 458 for the second.

Going from B20 to B21, the ELISA signal falls from 463 to 430.

Compared with B22, B23 is higher in ELISA signal: 237 for the first, 250 for the second.

Compared with B24, B25 is higher in ELISA signal: 341 for the first, 425 for the second.

First: B26
Second: B27
The ELISA signal of the first is lower: 323 for the first, 535 for the second.

Compared with B28, B29 is lower in ELISA signal: 501 for the first, 264 for the second.

First: B30
Second: B31
The ELISA signal of the first is higher: 520 for the first, 110 for the second.

First: B32
Second: B33
The ELISA signal of the first is lower: 216 for the first, 402 for the second.

First: B34
Second: B35
The ELISA signal of the first is lower: 311 for the first, 401 for the second.

Going from B36 to B37, the ELISA signal falls from 301 to 259.

Going from B38 to B39, the ELISA signal falls from 346 to 253.

First: B40
Second: B41
The ELISA signal of the first is lower: 213 for the first, 744 for the second.

Going from B42 to B43, the ELISA signal falls from 298 to 295.

Compared with B44, B45 is higher in ELISA signal: 299 for the first, 374 for the second.

First: B46
Second: B47
The ELISA signal of the first is higher: 305 for the first, 122 for the second.

First: B48
Second: B49
The ELISA signal of the first is higher: 375 for the first, 221 for the second.

Going from B50 to B51, the ELISA signal rises from 365 to 391.

Going from B52 to B53, the ELISA signal falls from 203 to 139.

Compared with B54, B55 is higher in ELISA signal: 213 for the first, 228 for the second.

Going from B56 to B57, the ELISA signal falls from 436 to 348.

First: B58
Second: B59
The ELISA signal of the first is lower: 360 for the first, 411 for the second.

Compared with B60, B61 is higher in ELISA signal: 293 for the first, 768 for the second.

First: B62
Second: B63
The ELISA signal of the first is lower: 271 for the first, 333 for the second.

First: B64
Second: B65
The ELISA signal of the first is lower: 374 for the first, 535 for the second.

Going from B66 to B67, the ELISA signal falls from 599 to 380.

First: B68
Second: B69
The ELISA signal of the first is higher: 451 for the first, 234 for the second.

For B70, the ELISA signal was 289.
